Patent US7981863B2, “Treatment of Parkinson's disease with PDGF” (Neuronova AB, priority 2001, dated 2011)

Columns and labels:
Mouse Neural Stem Cells = experiment: Neuronal differentiation (β-III Tubulin) of adult mouse neural stem cells; format: cell-based; conditions: 1 nM, 7 days
Experimental: Adult mouse neurosperes were dissociated with trypsin (Gibco) into single cells and transferred to poly-D-Lysine plates (BD) in the above culture medium, without growth factors, supplemented with 1% Fetal Calf Serum (Gibco). The cells were incubated over night to adhere to the plate. The medium was changed to culture medium, without growth factors, supplemented with 1 nM PDGF-AA or PDFG-BB (both from R&D Systems). The medium with new substance added every second day. The cells were incubated for a total of 7 days.
The cells were washed two times with PBS (Gibco) and fixed for 15 min RT with 4% Formaldehyde (Sigma) and permeabilized 20 min RT in 0.1% Triton X-100 (Sigma) in PBS. After fixation and permeabilization the cells were labelled with mouse monoclonal anti-β-III Tubulin (1:500 Promega). Primary antibody was visualized with anti mouse Texas-Red (1:100 Vector Laboratories). All antibodies were diluted in PBS with 0.1% Triton X-100.
The cells were washed twice with PBS (Gibco) and lysed with 200 ul lysis buffer/well. The lysis buffer contained PBS, 0.1% Triton X-100, 1 mM EDTA and 1 tab1. Protease inhibitor cocktail (Roche). The samples were run on a 4-12% Bis-Tris gel (Novex) under reduced conditions with MOPS buffer (Novex) and blotted onto a Hybond ECL nitrocellulose membrane (Amersham Biotech). Blocked in 5% ECL-Block (Amersham Biotech) in PBS+0.1% Tween 20 (Sigma). The membranes were labelled with mouse monoclonal anti-β-III Tubulin (1:5000 Promega). The primary antibody was detected using a secondary antibody anti-mouse-HRP (1:10000 Amersham Biotech) and ECL Plus+ Western Blot Detection Kit (Amersham Biotech). All antibodies were diluted in PBS with 0.1% Triton X-100, 1% ECL Block. The signal were then captured on ECL Hyper Film (Amersham Biotech)

MPTP-lesioned mice = experiment: MPTP-induced neuronal loss in substantia nigra pars compacta, intraventricular infusion; format: in vivo, mouse; conditions: for Total number of tyrosine hydroxylase neurons in the bilateral substantia nigra pars compacta: PDGF-BB intraventricularly 0.1 μg/h/kg for three days, two months later, Mean ± S.E.M
Experimental: Ten-week old male C57B1/6 mice (25 g, B&K Universal, Stockholm, Sweden).
PDGF-BB (Sigma) was administered directly into the right lateral ventricle of the brain using osmotic pumps (Alza 1003D, delivery of 1.0 μl/h for three days) and brain infusion kits. The drug solution was prepared as follows: 10 μg PDGF-BB was dissolved in 10 μl 1M HAc, after which pH was adjusted to 7.4 by adding 10 μl NaOH. A buffer was added (100 ml 0.01M PBS containing 5 mg/ml BSA and 20 mM Hepes) to a final volume of 4,000 μl. Each minipump was connected to a brain infusion needle, which was stereotaxically placed in the right lateral ventricle of the mouse brain in deeply anesthetized mice (chloral hydrate 60 mg/kg intraperitoneal). The pump was placed subcutaneously in the neck. The delivery rate of PDGF-BB was 0.1 μg/h/kg body weight. ^3H-thymidine (6.7 Ci/ml, NEN) was given for three days via another Alzet pump which was placed intraperitoneally.
One hour after the pumps were inserted, the neurotoxin 1-methyl-4-phenyl-1,2,3,6-tetrahydropyridine (MPTP HCl, Sigma) was given subcutaneously (40 mg/kg).
Two months later, animals were anesthetized with choral hydrate (60 mg/kg ip) and sacrificed by intracardial infusion of fixative (4% paraformaldehyde in 0.1 M phosphate buffered saline (PBS) containing 0.4% picric acid. After dissection, postfixation in the same fixative continued for 1.5 h followed by cryoprotection. After dissection of the midbrain, the two sides of the brain were separated with a cut along the ventro-dorsal midline and the tissue was postfixed in the same solution and cryoprotected in sucrose. Cryostat sections were prepared as follows: a randomly chosen half-brain was cut into 40 μm thick sections through the full rostro-caudal extension of substantia nigra pars compacta. A randomly chosen series of every 6th section was taken to perform free-floating immunohistochemistry using a polyclonal anti-tyrosine hydroxylase antibody (diluted 1:400, Pel-Freez) in order to identify dopaminergic neurons in the tissue. To visualize the antibody, the avidin-biotin peroxidase kit (Vector) with 0.03% DAB as chromagen was used adding 0.01% H2O2. Cresyl violet was employed to identify the nucleolus, Nissl substance and glia cells (Chan et al., 1997; Walters et al., 1999). The other half of the brain was sectioned in 10 μm thick sections on glass and a randomly chosen series of every 6th section was immunohistochemically stained for tyrosine hydroxylase in dopaminergic neurons as previously described. To detect incorporation of the ^3H-thymidine nucleotide in brain cells, the sampled slides were dipped in NTB2 nuclear track emulsion (Kodak) and stored in light-tight boxes at −20° C. for four weeks. […]

B1: PDGF-BB: human recombinant PDGF-BB, platelet derived growth factor B-chain homodimer (protein)
chain: SLGSLTIAEPAMIAECKTRTEVFEISRRLIDRTNANFLVWPPCVEVQRCSGCCNNRNVQCRPTQVQLRPVQVRKIEIVRKKPIFKKATVTLEDHLACKCETVAAARPVT
number of β-III Tubulin positive cells in culture (Mouse Neural Stem Cells; compared to the control, FIG. 5): significantly increase the number of β-III Tubulin positive cells | levels of β-III Tubulin protein (Western blot) (Mouse Neural Stem Cells; compared with the control, FIG. 6): significantly increased levels of β-III Tubulin protein | neuronal differentiation of cultured mouse neural stem cells/progenitors (Mouse Neural Stem Cells; FIG. 5 and FIG. 6): trigger neuronal differentiation | cell number in the substantia nigra (MPTP-lesioned mice; MPTP lesioned mice after infusion of PDGF): double | Total number of tyrosine hydroxylase neurons in the bilateral substantia nigra pars compacta (MPTP-lesioned mice; MPTP-lesioned (40 mg/kg s.c.)): 10,000 ± 200 | MPTP-induced loss of tyrosine hydroxylase positive nerve cells (MPTP-lesioned mice; after an MPTP lesion): completely counteracted | Total number of tyrosine hydroxylase neurons in the bilateral substantia nigra pars compacta (MPTP-lesioned mice; no MPTP lesion): 12,300 ± 300
